{"source": "paper doi:10.1101/2023.07.08.548186", "about": "(bioRxiv, 2023)", "key": {"[1]": {"target": "T1, ATG9A with N-terminal 6xHis and Twin-StrepII tags (human), Q7Z3C6", "T1 chain": "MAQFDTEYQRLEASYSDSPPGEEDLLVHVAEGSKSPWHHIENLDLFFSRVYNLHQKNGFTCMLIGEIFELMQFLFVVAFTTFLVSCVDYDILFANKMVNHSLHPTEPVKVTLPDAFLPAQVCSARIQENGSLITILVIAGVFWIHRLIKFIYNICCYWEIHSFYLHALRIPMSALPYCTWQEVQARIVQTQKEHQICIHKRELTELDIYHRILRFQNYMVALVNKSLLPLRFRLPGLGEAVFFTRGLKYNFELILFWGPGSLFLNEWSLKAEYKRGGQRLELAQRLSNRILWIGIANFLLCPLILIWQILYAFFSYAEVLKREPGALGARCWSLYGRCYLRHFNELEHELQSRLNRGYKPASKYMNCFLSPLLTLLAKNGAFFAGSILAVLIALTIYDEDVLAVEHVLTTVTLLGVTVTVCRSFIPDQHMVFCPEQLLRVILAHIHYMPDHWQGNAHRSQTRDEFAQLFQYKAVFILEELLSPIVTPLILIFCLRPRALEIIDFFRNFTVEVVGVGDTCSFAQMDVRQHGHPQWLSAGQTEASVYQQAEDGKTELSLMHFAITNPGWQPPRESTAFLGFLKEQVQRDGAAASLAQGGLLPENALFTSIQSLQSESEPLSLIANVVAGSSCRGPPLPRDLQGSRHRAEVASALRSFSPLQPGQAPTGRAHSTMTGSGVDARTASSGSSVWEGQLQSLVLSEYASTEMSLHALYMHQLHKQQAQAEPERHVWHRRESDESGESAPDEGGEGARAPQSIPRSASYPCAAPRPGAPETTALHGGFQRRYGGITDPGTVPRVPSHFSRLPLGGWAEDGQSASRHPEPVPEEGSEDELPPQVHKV", "test": "cryo-EM structure", "settings": "remark: other sources report otherwise"}, "[2]": {"target": "T2, ATG9A with N-terminal 6xHis and Twin-StrepII tags (human, UniProt Q7Z3C6 1-839)", "T2 sequence": "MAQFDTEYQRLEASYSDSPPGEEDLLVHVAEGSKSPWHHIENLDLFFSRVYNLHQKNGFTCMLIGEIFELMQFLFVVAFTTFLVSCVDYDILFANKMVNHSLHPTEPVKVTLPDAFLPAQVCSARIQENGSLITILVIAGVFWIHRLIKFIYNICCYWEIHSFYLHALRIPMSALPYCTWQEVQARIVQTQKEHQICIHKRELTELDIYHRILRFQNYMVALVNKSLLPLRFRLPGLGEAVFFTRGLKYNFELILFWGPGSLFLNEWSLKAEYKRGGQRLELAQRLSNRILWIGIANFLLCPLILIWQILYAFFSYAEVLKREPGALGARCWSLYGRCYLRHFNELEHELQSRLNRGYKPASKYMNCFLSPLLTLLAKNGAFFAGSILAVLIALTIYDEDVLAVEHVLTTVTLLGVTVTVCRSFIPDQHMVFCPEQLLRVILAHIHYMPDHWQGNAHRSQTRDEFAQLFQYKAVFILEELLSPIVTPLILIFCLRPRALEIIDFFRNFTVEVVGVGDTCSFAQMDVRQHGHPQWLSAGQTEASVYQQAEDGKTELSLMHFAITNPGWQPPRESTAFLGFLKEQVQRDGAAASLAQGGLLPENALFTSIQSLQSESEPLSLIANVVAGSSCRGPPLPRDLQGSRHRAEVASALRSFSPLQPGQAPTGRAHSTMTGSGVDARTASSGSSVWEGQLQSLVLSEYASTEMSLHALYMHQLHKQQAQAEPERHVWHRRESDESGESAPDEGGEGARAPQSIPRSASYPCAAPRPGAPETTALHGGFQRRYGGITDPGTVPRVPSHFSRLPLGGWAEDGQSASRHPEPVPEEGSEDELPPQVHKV", "test": "cryo-EM structure"}}, "data": [{"binder": "ATG9A with N-terminal 6xHis and Twin-StrepII tags, Q7Z3C6 1-839 (natural protein) MAQFDTEYQRLEASYSDSPPGEEDLLVHVAEGSKSPWHHIENLDLFFSRVYNLHQKNGFTCMLIGEIFELMQFLFVVAFTTFLVSCVDYDILFANKMVNHSLHPTEPVKVTLPDAFLPAQVCSARIQENGSLITILVIAGVFWIHRLIKFIYNICCYWEIHSFYLHALRIPMSALPYCTWQEVQARIVQTQKEHQICIHKRELTELDIYHRILRFQNYMVALVNKSLLPLRFRLPGLGEAVFFTRGLKYNFELILFWGPGSLFLNEWSLKAEYKRGGQRLELAQRLSNRILWIGIANFLLCPLILIWQILYAFFSYAEVLKREPGALGARCWSLYGRCYLRHFNELEHELQSRLNRGYKPASKYMNCFLSPLLTLLAKNGAFFAGSILAVLIALTIYDEDVLAVEHVLTTVTLLGVTVTVCRSFIPDQHMVFCPEQLLRVILAHIHYMPDHWQGNAHRSQTRDEFAQLFQYKAVFILEELLSPIVTPLILIFCLRPRALEIIDFFRNFTVEVVGVGDTCSFAQMDVRQHGHPQWLSAGQTEASVYQQAEDGKTELSLMHFAITNPGWQPPRESTAFLGFLKEQVQRDGAAASLAQGGLLPENALFTSIQSLQSESEPLSLIANVVAGSSCRGPPLPRDLQGSRHRAEVASALRSFSPLQPGQAPTGRAHSTMTGSGVDARTASSGSSVWEGQLQSLVLSEYASTEMSLHALYMHQLHKQQAQAEPERHVWHRRESDESGESAPDEGGEGARAPQSIPRSASYPCAAPRPGAPETTALHGGFQRRYGGITDPGTVPRVPSHFSRLPLGGWAEDGQSASRHPEPVPEEGSEDELPPQVHKV", "values": [{"measurement": "stoichiometry N", "setting": "[1]", "result": 3}]}, {"binder": "human ATG2A, full length (natural protein) MSRWLWPWSNCVKERVCRYLLHHYLGHFFQEHLSLDQLSLDLYKGSVALRDIHLEIWSVNEVLESMESPLELVEGFVGSIEVAVPWAALLTDHCTVRVSGLQLTLQPRRGPAPGAADSQSWASCMTTSLQLAQECLRDGLPEPSEPPQPLEGLEMFAQTIETVLRRIKVTFLDTVVRVEHSPGDGERGVAVEVRVQRLEYCDEAVRDPSQAPPVDVHQPPAFLHKLLQLAGVRLHYEELPAQEEPPEPPLQIGSCSGYMELMVKLKQNEAFPGPKLEVAGQLGSLHLLLTPRQLQQLQELLSAVSLTDHEGLADKLNKSRPLGAEDLWLIEQDLNQQLQAGAVAEPLSPDPLTNPLLNLDNTDLFFSMAGLTSSVASALSELSLSDVDLASSVRSDMASRRLSAQAHPAGKMAPNPLLDTMRPDSLLKMTLGGVTLTLLQTSAPSSGPPDLATHFFTEFDATKDGPFGSRDFHHLRPRFQRACPCSHVRLTGTAVQLSWELRTGSRGRRTTSMEVHFGQLEVLECLWPRGTSEPEYTEILTFPGTLGSQASARPCAHLRHTQILRRVPKSRPRRSVACHCHSELALDLANFQADVELGALDRLAALLRLATVPAEPPAGLLTEPLPAMEQQTVFRLSAPRATLRLRFPIADLRPEPDPWAGQAVRAEQLRLELSEPQFRSELSSGPGPPVPTHLELTCSDLHGIYEDGGKPPVPCLRVSKALDPKSTGRKYFLPQVVVTVNPQSSSTQWEVAPEKGEELELSVESPCELREPEPSPFSSKRTMYETEEMVIPGDPEEMRTFQSRTLALSRCSLEVILPSVHIFLPSKEVYESIYNRINNDLLMWEPADLLPTPDPAAQPSGFPGPSGFWHDSFKMCKSAFKLANCFDLTPDSDSDDEDAHFFSVGASGGPQAAAPEAPSLHLQSTFSTLVTVLKGRITALCETKDEGGKRLEAVHGELVLDMEHGTLFSVSQYCGQPGLGYFCLEAEKATLYHRAAVDDYPLPSHLDLPSFAPPAQLAPTIYPSEEGVTERGASGRKGQGRGPHMLSTAVRIHLDPHKNVKEFLVTLRLHKATLRHYMALPEQSWHSQLLEFLDVLDDPVLGYLPPTVITILHTHLFSCSVDYRPLYLPVRVLITAETFTLSSNIIMDTSTFLLRFILDDSALYLSDKCEVETLDLRRDYVCVLDVDLLELVIKTWKGSTEGKLSQPLFELRCSNNVVHVHSCADSCALLVNLLQYVMSTGDLHPPPRPPSPTEIAGQKLSESPASLPSCPPVETALINQRDLADALLDTERSLRELAQPSGGHLPQASPISVYLFPGERSGAPPPSPPVGGPAGSLGSCSEEKEDEREEEGDGDTLDSDEFCILDAPGLGIPPRDGEPVVTQLHPGPIVVRDGYFSRPIGSTDLLRAPAHFPVPSTRVVLREVSLVWHLYGGRDFGPHPGHRARTGLSGPRSSPSRCSGPNRPQNSWRTQGGSGRQHHVLMEIQLSKVSFQHEVYPAEPATGPAAPSQELEERPLSRQVFIVQELEVRDRLASSQINKFLYLHTSERMPRRAHSNMLTIKALHVAPTTNLGGPECCLRVSLMPLRLNVDQDALFFLKDFFTSLVAGINPVVPGETSAEARPETRAQPSSPLEGQAEGVETTGSQEAPGGGHSPSPPDQQPIYFREFRFTSEVPIWLDYHGKHVTMDQVGTFAGLLIGLAQLNCSELKLKRLCCRHGLLGVDKVLGYALNEWLQDIRKNQLPGLLGGVGPMHSVVQLFQGFRDLLWLPIEQYRKDGRLMRGLQRGAASFGSSTASAALELSNRLVQAIQATAETVYDILSPAAPVSRSLQDKRSARRLRRGQQPADLREGVAKAYDTVREGILDTAQTICDVASRGHEQKGLTGAVGGVIRQLPPTVVKPLILATEATSSLLGGMRNQIVPDAHKDHALKWRSDSAQD", "values": [{"measurement": "stoichiometry N", "setting": "[2]", "result": 1, "unit": "ATG2A per ATG9A trimer"}]}]}
